According to patent US20250084169A1 (published 2025):

Columns and labels:
[1] = target: recombinant human Fc gamma RIIIa (CD16a) 158V (human, UniProt P08637 17-208)
[2] = target: CD19 (target of Table 9)

recombinant human Fc gamma RIIIa (CD16a) 158V, sequence (P08637 17-208 F176V limits assumed): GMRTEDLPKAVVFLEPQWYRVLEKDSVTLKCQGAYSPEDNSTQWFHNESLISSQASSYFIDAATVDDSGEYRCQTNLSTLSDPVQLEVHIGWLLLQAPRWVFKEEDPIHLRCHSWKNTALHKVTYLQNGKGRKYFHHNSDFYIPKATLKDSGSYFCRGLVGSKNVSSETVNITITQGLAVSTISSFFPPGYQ

B1: B19c66 (antibody, human IgG1, kappa)
light: not shown
heavy: not shown
chain: CPPCPAPELLGGPSVFLFPPKPKDTLMISRTPEVTCVVVDVSHEDPEVKFNWYVDGVEVHNAKTKPREEQYNSTYRVVSVLTVLHQDWLNGKEYKCKVSNKALPAPIEKTISKAKGQPREPQVYVYPPSRDELTKNQVSLTCLVKGFYPSDIAVEWESNGQPENNYKTTPPVLDSDGSFALVSKLTVDKSRWQQGNVFSCSVMHEALHNHYTQKSLSLSPGK
- Kd [1]: 234 nM
- Kd [2]: 21.8 nM
